Assay results taken from article PMC10090080.

Assays:
[1] = molecular target: pUL93 (human cytomegalovirus strain AD169); test: cryo-EM structure
[2] = molecular target: portal protein pUL104 (human cytomegalovirus strain AD169); test: cryo-EM structure

Substance	stoichiometry N [1]	stoichiometry N [2]
pUL77 (natural protein)	2	–
portal protein pUL104 (natural protein)	–	12
